Data from article PMC4022648.
Several values for one entry are separate records, joined by “and”; a condition that tells them apart may be missing. Identical values can stand only once.

Tests used:
[1] = molecular target: naïve Hsp60 (human Hsp60 with its mitochondrial import signal) (human) (UniProt P10809); test: SAXS; 20 °C, Guinier analysis; naïve Hsp60 at 23.8 µM
[2] = molecular target: naïve Hsp60 (human Hsp60 with its mitochondrial import signal) (human) (UniProt P10809); test: SAXS; 20 °C, Guinier analysis; naïve Hsp60 at 79.5 µM, GroEL at 52.5 µM
[3] = molecular target: naïve Hsp60 (human Hsp60 with its mitochondrial import signal) (human) (UniProt P10809); test: SEC; HPLC size exclusion, Shodex 806 and 804 in series, 24 °C, 20 mM Tris-HCl pH 8 + 10% glycerol; naïve Hsp60 at 0.8-16.0 µM, compared with GroEL at 7.0 µM and BSA
[4] = molecular target: naïve Hsp60 (human Hsp60 with its mitochondrial import signal) (human) (UniProt P10809); test: static light scattering; Rayleigh ratio at 90° divided by concentration; naïve Hsp60 at 1.6-47.6 µM; compared with ideal lines for tetradecamer (882 kDa) and heptamer (441 kDa)
[5] = molecular target: naïve Hsp60 (human Hsp60 with its mitochondrial import signal) (human) (UniProt P10809); test: native gel or EMSA; Blue native PAGE, 4-16% Bis-Tris gels, sample buffer with 1% digitonin and 0.5% DDM, pH 7.2, Coomassie G-250; naïve Hsp60 at 1.9-20.7 µM, GroEL at 1.0-18.9 µM

“naïve Hsp60 (human Hsp60 with its mitochondrial import signal) (from UniProt P10809 27-573) (natural protein)” was tested, and the stoichiometry N [1] was 7 and 14, the stoichiometry N [2] was 14 and the stoichiometry N [3] was 7 and 14. The stoichiometry N [4] was 7 and 14 and the stoichiometry N [5] was 7 and 14.
